Laboratory results published in US20060165686A1 (NOVIMMUNE S A, published 2006).

What was measured:
Experiment in all cases: cell-based or functional assay
[1] = target: human toll-like receptor 2 (TLR2) (human, UniProt O60603 21-784)
[2] = target: T1, human MD-2 accessory protein (human, UniProt Q9Y6Y9 19-160)
T1 chain: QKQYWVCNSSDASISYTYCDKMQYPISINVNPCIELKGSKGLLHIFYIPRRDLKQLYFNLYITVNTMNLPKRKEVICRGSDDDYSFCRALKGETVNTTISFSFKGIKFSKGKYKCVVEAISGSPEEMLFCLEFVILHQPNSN

[3] = target: human toll-like receptor 4 (TLR4) (human, UniProt O00206 24-839)
Chain of human toll-like receptor 4 (TLR4) (O00206 24-839 limits assumed): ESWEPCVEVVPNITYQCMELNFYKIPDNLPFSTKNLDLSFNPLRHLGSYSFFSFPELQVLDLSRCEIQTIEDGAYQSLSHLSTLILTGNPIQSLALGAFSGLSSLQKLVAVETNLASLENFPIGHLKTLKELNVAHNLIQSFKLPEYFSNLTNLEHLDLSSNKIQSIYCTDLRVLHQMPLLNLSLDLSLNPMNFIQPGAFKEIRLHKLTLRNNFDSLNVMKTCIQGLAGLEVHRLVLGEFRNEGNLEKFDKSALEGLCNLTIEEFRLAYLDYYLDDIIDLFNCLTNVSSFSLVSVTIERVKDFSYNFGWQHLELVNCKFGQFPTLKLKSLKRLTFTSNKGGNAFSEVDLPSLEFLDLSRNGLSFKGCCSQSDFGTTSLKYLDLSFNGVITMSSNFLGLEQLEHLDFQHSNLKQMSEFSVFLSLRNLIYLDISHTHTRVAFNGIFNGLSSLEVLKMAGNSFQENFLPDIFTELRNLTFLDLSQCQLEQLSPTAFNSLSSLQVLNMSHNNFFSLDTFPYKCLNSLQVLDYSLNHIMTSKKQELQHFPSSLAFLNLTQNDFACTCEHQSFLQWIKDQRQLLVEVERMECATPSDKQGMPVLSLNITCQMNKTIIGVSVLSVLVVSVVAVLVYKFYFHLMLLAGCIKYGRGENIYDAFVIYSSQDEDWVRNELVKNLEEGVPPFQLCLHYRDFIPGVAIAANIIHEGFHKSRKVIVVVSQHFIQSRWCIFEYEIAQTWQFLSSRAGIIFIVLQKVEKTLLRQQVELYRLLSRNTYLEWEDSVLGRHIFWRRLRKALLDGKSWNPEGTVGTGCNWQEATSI

Chain of human toll-like receptor 2 (TLR2) (O60603 21-784): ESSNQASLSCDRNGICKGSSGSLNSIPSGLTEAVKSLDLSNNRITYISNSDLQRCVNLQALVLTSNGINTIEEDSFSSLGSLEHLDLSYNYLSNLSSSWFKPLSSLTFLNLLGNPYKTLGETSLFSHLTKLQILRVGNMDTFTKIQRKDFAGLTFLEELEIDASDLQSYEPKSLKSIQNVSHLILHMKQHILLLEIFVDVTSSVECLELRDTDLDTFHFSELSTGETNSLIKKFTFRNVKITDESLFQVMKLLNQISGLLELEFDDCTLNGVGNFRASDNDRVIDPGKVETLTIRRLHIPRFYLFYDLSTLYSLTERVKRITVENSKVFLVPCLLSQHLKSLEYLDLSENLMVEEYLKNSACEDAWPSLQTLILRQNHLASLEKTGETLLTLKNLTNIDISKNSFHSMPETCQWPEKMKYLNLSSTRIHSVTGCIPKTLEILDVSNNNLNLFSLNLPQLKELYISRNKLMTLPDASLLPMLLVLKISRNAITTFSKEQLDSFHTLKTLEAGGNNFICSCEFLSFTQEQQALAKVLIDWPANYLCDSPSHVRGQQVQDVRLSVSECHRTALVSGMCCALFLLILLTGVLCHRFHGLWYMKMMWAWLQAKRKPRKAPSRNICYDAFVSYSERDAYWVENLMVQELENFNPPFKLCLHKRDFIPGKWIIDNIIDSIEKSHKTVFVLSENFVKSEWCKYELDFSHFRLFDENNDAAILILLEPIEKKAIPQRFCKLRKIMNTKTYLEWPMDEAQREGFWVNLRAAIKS

B1: α-human TLR2 MAb T2.5 (antibody, V domains shown)
VH: QVQLQQSGPELVNPGASVKLSCKASGFTFTTYGINWVKQGPGQGLEWIGWIYPRDGSTNFNENFKDKAALTVDTSSSTAYMELHSLTSEDSAVYFCARLTGGTFLDWWGQGTTLTVSS
VL: DIVLTQSPASLAVSLGQRATISCRASESVEYYGTSLMQWYQQKPGQPPKLLIFGASNVESGVPVRFSGSGSGTDFSLNIHPVEEDDIVMYFCQQSRKLPWTFGGGTKLEIKR
IL-6 production induced by pseudomonas LPS in human whole blood [1]: ~50%

B2: α-human MD-2 MAb 18H10 (murine 18H10 monoclonal antibody) (antibody, mouse IgG2b, V domains shown)
VH: QVQLQQSGADLVRPGALVKLSCTASGFNIKDSYIHWVKKRPEWGLEWIGWTDPENVNSIYDPRFQGKASITADTSSNTAFLQLTSLTSEDTAVYYCARGYNGVYYAMDYWGQGTSVTVSS
VL: QIVLTQSPSIMSASLGEEITLTCSASSSVIYMHWYQQKSGTSPKLLIYRTYNLASGVPSRFSGSGSGTFYSLTISSVEAEDAADYYCHQWSSFPYTFGGGTKLEIKR
IL-6 production induced by pseudomonas LPS in human whole blood [2]: ~50%

B3: α-human TLR4 MAb 15C1 (murine 15C1 monoclonal antibody) (antibody, mouse IgG1, V domains shown)
VH: DVQLQESGPDLIQPSQSLSLTCTVTGYSITGGYSWHWIRQFPGNKLEWMGYIHYSGYTDFNPSLKTRISITRDTSKNQFFLQLNSVTTEDTATYYCARKDPSDGFPYWGQGTLVTVSA
VL: DIVMTQSPATLSVTPGDRVSLSCRASQSISDHLHWYQQKSHESPRLLIKYASHAISGIPSRFSGSGSGTDFTLSIKSVEPEDIGVYYCQNGHSFPLTFGAGTKLELK
IL-6 production induced by pseudomonas LPS in human whole blood [3]: ~50%
